{
  "source": "patent US20100256040A1",
  "about": "(priority 2001, published 2010)",
  "target": "T1, interaction between GST-p6 and myc-Tsg101(1-207) (Homo sapiens, UniProt Q99816)",
  "T1 construct": "myc-tagged Tsg101 (residues 1-207); made in house; host or cells: Drosophila S2 cells, with Tsg101 used as crude cell lysate",
  "T1 sequence (Q99816 1-207)": "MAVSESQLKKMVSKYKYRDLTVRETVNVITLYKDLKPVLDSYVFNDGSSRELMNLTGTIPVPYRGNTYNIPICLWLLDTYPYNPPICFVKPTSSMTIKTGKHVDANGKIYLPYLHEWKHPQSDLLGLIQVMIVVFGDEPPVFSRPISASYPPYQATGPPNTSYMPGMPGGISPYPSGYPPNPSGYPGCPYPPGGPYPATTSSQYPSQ",
  "assay": "Competitive inhibition of GST-p6 : myc-Tsg101(1-207) binding on plates (fluorescence detection)",
  "details": "competitive inhibition curve, FIG. 1",
  "protocol": "A fusion protein with a GST tag fused to the HIV-1 GAGp6 domain was recombinantly expressed and purified by chromatography. In addition, a GAGp6 peptide containing the first 14 amino acid residues (“p6(1-14)”) was synthesized chemically by standard peptide synthesis methods. The peptide was purified by conventional protein purification techniques, e.g., by chromatography.\nNunc/Nalgene Maxisorp plates were incubated overnight at 4° C. or for 1-2 hrs at room temperature in 100 μl of a protein coupling solution containing purified GST-p6 and 50 mM Carbonate, pH=9.6. This allowed the attachment of the GST-p6 fusion protein to the plates. Liquids in the plates were then emptied and wells filled with 400 μl/well of a blocking buffer (SuperBlock; Pierce-Endogen, Rockford, Ill.). […]\nPlates were then washed 4×100 μl with 1×PBST solution (Invitrogen; Carlsbad, Calif.). […] Plates were then read on a Packard Fusion instrument at an excitation wavelength of 325 nm and an emission wavelength of 420 nm. […]\nDifferent concentrations of the p6(1-14) peptide were tested, and the relative intensities of the fluorescence signals obtained at different concentrations were plotted against the peptide concentrations. […]",
  "data": [
    {"substance": "p6(1-14): chemically synthesized GAGp6 peptide containing the first 14 amino acid residues (LQSRPEPTAPPEES)", "values": [
      {"measurement": "inhibition of protein-protein interaction between GST-p6 and myc-Tsg101(1-207)", "value": "capable of inhibiting protein-protein interaction"}
    ]}
  ]
}
